Measured values reported in US20220298260A1 (MYTHIC THERAPEUTICS, published 2022).
Numbering of substitutions follows the chain as printed.

B1: MYT2185 (antibody, V domains shown)
VH: EVQLVESGGGVVQPGRSLRLSCSASHFTFSGYGLSWVRQAPGKGLEWVAMISSGGSYTYYADSVKGRFAISRDNAKNTLFLQMDSLRPEDTGVYFCARHGDDPAWFAYWGQGTPVTVSS
VL: DIQLTQSPSSLSASVGDRVTITCSVSSSISSNNLHWYQQKPGKAPKPWIYGTSNLASGVPSRFSGSGSGTDYTFTISSLQPEDIATYYCQQWSSYPYMYTFGQGTKVEIK
notes: IgG
B2: MYT2206 (antibody, V domains shown)
VH: B1 VH with H26G, A61H
VL: B1 VL
notes: IgG
B3: MYT2186 (antibody, V domains shown)
VH: B1 VH with H26G, F27H
VL: B1 VL
notes: IgG
B4: MYT4524 (antibody, V domains shown)
VH: B1 VH with H26G
VL: B1 VL with S31H
notes: IgG
B5: MYT4522 (antibody, V domains shown)
VH: B1 VH with H26G
VL: B1 VL with I29H
notes: IgG
B6: MYT2220 (antibody, V domains shown)
VH: B1 VH with H26G, W105H
VL: B1 VL
notes: IgG
B7: MYT2190 (antibody, V domains shown)
VH: B1 VH with H26G, G31H
VL: B1 VL
notes: IgG
B8: MYT2189 (antibody, V domains shown)
VH: B1 VH with H26G, S30H
VL: B1 VL
notes: IgG
B9: MYT4520 (antibody, V domains shown)
VH: B1 VH with H26G
VL: B1 VL with S27H
notes: IgG
B10: MYT2223 (antibody, V domains shown)
VH: B1 VH with H26G, Y108H
VL: B1 VL
notes: IgG
B11: MYT2199 (antibody, V domains shown)
VH: B1 VH with H26G, G54H
VL: B1 VL
notes: IgG
B12: MYT4529 (antibody, V domains shown)
VH: B1 VH with H26G
VL: B1 VL with G51H
notes: IgG
B13: MYT2192 (antibody, V domains shown)
VH: B1 VH with H26G, G33H
VL: B1 VL
notes: IgG
B14: MYT2209 (antibody, V domains shown)
VH: B1 VH with H26G, V64H
VL: B1 VL
notes: IgG
B15: MYT2193 (antibody, V domains shown)
VH: B1 VH with H26G, L34H
VL: B1 VL
notes: IgG
B16: MYT4523 (antibody, V domains shown)
VH: B1 VH with H26G
VL: B1 VL with S30H
notes: IgG
B17: MYT2208 (antibody, V domains shown)
VH: B1 VH with H26G, S63H
VL: B1 VL
notes: IgG
B18: MYT2198 (antibody, V domains shown)
VH: B1 VH with H26G, S53H
VL: B1 VL
notes: IgG
B19: MYT2211 (antibody, V domains shown)
VH: B1 VH with H26G, G66H
VL: B1 VL
notes: IgG
B20: MYT4527 (antibody, V domains shown)
VH: B1 VH with H26G
VL: B1 VL with L34H
notes: IgG
B21: MYT4530 (antibody, V domains shown)
VH: B1 VH with H26G
VL: B1 VL with T52H
notes: IgG
B22: MYT2218 (antibody, V domains shown)
VH: B1 VH with H26G, P103H
VL: B1 VL
notes: IgG
B23: MYT2187 (antibody, V domains shown)
VH: B1 VH with H26G, T28H
VL: B1 VL
notes: IgG
B24: MYT2204 (antibody, V domains shown)
VH: B1 VH with H26G, Y59H
VL: B1 VL
notes: IgG
B25: MYT2216 (antibody, V domains shown)
VH: B1 VH with H26G, D101H
VL: B1 VL
notes: IgG
B26: MYT2207 (antibody, V domains shown)
VH: B1 VH with H26G, D62H
VL: B1 VL
notes: IgG
B27: MYT2205 (antibody, V domains shown)
VH: B1 VH with H26G, Y60H
VL: B1 VL
notes: IgG
B28: MYT4528 (antibody, V domains shown)
VH: B1 VH with H26G
VL: B1 VL with H35A
notes: IgG
B29: MYT2202 (antibody, V domains shown)
VH: B1 VH with H26G, Y57H
VL: B1 VL
notes: IgG
B30: MYT2201 (antibody, V domains shown)
VH: B1 VH with H26G, S56H
VL: B1 VL
notes: IgG
B31: MYT2210 (antibody, V domains shown)
VH: B1 VH with H26G, K65H
VL: B1 VL
notes: IgG
B32: MYT2222 (antibody, V domains shown)
VH: B1 VH with H26G, A107H
VL: B1 VL
notes: IgG
B33: MYT4526 (antibody, V domains shown)
VH: B1 VH with H26G
VL: B1 VL with N33H
notes: IgG
B34: MYT2203 (antibody, V domains shown)
VH: B1 VH with H26G, T58H
VL: B1 VL
notes: IgG
B35: MYT2214 (antibody, V domains shown)
VH: B1 VH with H26G, H99A
VL: B1 VL
notes: IgG
B36: MYT4531 (antibody, V domains shown)
VH: B1 VH with H26G
VL: B1 VL with S53H
notes: IgG
B37: MYT4521 (antibody, V domains shown)
VH: B1 VH with H26G
VL: B1 VL with S28H
notes: IgG
B38: MYT2188 (antibody, V domains shown)
VH: B1 VH with H26G, F29H
VL: B1 VL
notes: IgG
B39: MYT2191 (antibody, V domains shown)
VH: B1 VH with H26G, Y32H
VL: B1 VL
notes: IgG
B40: MYT4512 (antibody, V domains shown)
VH: EVQLVESGGGLVQPGGSLRLSCAASGFNIRTQSIHWVRQAPGKGLEWIGDIFPIDGITDYADSVKGRFTISADTSKNTAYLQMNSLRAEDTAVYYCARGSWSWPSGMDYYLDYWGQGTLVTVSS
VL: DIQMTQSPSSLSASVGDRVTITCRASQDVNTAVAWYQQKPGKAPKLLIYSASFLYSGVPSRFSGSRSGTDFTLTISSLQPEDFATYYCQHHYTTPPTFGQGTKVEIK
notes: IgG
B41: MYT4515 (antibody, V domains shown)
VH: B40 VH
VL: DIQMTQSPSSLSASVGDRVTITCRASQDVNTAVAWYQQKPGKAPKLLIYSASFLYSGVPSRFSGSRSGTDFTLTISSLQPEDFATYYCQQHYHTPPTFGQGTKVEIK
notes: IgG
B42: MYT4518 (antibody, V domains shown)
VH: B40 VH
VL: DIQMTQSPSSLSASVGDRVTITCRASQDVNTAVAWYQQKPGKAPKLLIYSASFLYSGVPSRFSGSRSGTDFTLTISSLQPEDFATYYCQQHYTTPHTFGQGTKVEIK
notes: IgG
B43: MYT4517 (antibody, V domains shown)
VH: B40 VH
VL: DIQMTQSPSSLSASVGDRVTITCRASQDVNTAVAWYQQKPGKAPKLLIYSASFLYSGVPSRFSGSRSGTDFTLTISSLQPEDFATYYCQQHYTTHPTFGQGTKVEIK
notes: IgG
B44: MYT4516 (antibody, V domains shown)
VH: B40 VH
VL: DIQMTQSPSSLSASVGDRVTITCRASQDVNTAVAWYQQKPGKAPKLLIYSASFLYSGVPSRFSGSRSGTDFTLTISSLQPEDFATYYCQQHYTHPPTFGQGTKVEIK
notes: IgG
B45: MYT4519 (antibody, V domains shown)
VH: B40 VH
VL: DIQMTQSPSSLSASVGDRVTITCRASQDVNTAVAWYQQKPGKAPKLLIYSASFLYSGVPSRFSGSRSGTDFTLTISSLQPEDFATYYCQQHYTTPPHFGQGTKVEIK
notes: IgG
B46: MYT4514 (antibody, V domains shown)
VH: B40 VH
VL: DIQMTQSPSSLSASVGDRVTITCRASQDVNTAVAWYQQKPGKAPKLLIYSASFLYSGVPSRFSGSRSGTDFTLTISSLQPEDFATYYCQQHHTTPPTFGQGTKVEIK
notes: IgG
B47: MYT4513 (antibody, V domains shown)
VH: B40 VH
VL: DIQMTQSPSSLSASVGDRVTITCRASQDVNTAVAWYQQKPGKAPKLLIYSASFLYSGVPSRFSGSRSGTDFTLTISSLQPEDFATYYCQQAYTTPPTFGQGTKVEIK
notes: IgG

Biological target: T1, FOLR1 (R&D Systems, Cat #5646-FR) (human, UniProt P15328 25-233)
T1 construct: Bought soluble protein; also called Folate Receptor 1
Test: BLI, IgG on anti-human Fc sensor, 50 nM FOLR1

T1 sequence (P15328 25-233 limits assumed): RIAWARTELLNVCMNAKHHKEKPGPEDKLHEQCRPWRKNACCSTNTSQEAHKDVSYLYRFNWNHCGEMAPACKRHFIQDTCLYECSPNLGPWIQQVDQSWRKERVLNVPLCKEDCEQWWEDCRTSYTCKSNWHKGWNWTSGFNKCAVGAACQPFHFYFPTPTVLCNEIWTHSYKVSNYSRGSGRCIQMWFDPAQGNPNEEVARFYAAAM

Binding result, binds:
B1
B2
B3
B4
B5
B6
B7
B8
B9
B10
B11
B12
B13
B14
B15
B16
B17
B18
B19
B20
B21
B22
B23
B24
B25
B26
B27
B28
B29
B30
B31
B32
B33
B34
B35
B36
B37
B38
B39
B40
B41
B42
B43
B44
B45
B46
B47
